Target: T1, human CCL3 (human, UniProt P10147 23-92)
T1 construct: also called hCCL3
T1 sequence: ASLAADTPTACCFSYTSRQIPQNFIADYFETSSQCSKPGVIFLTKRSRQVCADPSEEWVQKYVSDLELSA
Assay: SPR saturation binding (KD,eq), R17 on CM5 chip

B1: R17 chemokine decoy receptor of Rodent herpesvirus Peru (RHVP), wild type, C-terminal 8-His fusion (receptor)
chain: GPVGEPVASEINEASKVSSRLLTQDILFRKDRQATISLPIKLPVEDIITQTCDKITYGPLKFLDLLEKETAVLPLSTDITCPACLGRAVLVGKWECPAHVAVNESDLTVFGPNKEEHVPQFVTVQQPSDGKMQRLFFAKFLGTEESLAVLRVPGPDGHLCIQEALIHFKELSGAGVCSLWKANDSREEGLEMKQVDCLETTVLENQTCIATTLSKKIYHRLYCGERLMTGGQVSTRVLLTALGFYKRQPYTFHRVPKGMVYVHLIDSGSEDYMEYSECEEVTPGRYEDKQISYTFYTDLFQTADGEPVLASVWGTSGLKDSAYESCAFVIPTKGRRKLVPRRIMSKCYPFRLTYHPSTMTVRLDVRVEKHHGATDQGFVFLKMESGTYSEGREYYLDRVLWGEDSSTNNVLQ
notes: not shown: C-terminal 8-His tag
  Kd: 1.4 nM

From patent publication US20200164032A1 (WASHINGTON UNIVERSITY, published 2020)
